Reference: patent publication US20220064286A1

How the values were obtained:
[1] = target: cynomolgus TIGIT-AviFlag-biotin (cynomolgus monkey); assay: Block ELISA Cyno PVR-Fc:Bio-TIGIT-AviFlag (blocked ligand cyno PVR-Fc)
[2] = target: human TIGIT-AviFlag-biotin (human) (UniProt Q495A1); assay: Block ELISA Human PVR-Fc:Bio-TIGIT-AviFlag (blocked ligand human PVR-Fc)
mouse TIGIT-His (mouse) = mouse TIGIT-His (mouse) (UniProt P86176); assay: Block ELISA Mouse PVR-Fc:TIGIT-His (blocked ligand mouse PVR-Fc)
[3] = target: human TIGIT protein (human) (UniProt Q495A1); assay: SPR (BIACORE) KD normalized to WT, N=2
[4] = target: human TIGIT protein (human) (UniProt Q495A1); assay: SPR, bivalent affinity
[5] = target: cynomolgus monkey (cyno) TIGIT protein (cynomolgus monkey); assay: SPR, bivalent affinity
murine TIGIT (murine) = murine TIGIT (murine) (UniProt P86176); assay: SPR, monovalent affinity
[6] = target: human TIGIT protein (human) (UniProt Q495A1); assay: SPR, monovalent affinity
[7] = target: human TIGIT protein (human) (UniProt Q495A1); assay: SPR (BIACORE), N=2

Chain of human TIGIT protein (human) (Q495A1 22-141 limits assumed): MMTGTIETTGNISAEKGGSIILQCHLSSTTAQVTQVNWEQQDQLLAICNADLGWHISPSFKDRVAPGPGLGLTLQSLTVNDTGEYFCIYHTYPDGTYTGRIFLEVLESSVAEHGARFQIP
Chain of human TIGIT-AviFlag-biotin (human) (Q495A1 22-141): as the sequence (Q495A1 22-141 limits assumed) above
Chain of cynomolgus TIGIT-AviFlag-biotin (cynomolgus monkey) (chain, as listed by the source): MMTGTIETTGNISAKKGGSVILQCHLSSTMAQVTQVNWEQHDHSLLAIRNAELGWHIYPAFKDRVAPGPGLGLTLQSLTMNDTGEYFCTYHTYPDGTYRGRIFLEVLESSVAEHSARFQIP
Chain of mouse TIGIT-His (mouse) (P86176 29-148 limits assumed): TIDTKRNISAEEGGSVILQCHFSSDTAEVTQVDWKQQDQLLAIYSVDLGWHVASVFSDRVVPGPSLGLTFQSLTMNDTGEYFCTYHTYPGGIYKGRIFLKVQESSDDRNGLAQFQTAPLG
Chain of 10A7 (antibody) (VH): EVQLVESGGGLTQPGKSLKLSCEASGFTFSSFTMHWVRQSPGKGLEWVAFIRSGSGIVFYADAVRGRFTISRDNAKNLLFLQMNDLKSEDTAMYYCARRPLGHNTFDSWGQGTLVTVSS
Chain of 10A7 (antibody) (VL): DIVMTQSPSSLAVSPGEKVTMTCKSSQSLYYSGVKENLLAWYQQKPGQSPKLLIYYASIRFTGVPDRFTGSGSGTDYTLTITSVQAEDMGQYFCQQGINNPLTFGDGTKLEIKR
Chain of 10A7 Fab (VH): as the sequence (VH) above
Chain of 10A7 Fab (VL): as the sequence (VL) above
Chain of cynomolgus monkey (cyno) TIGIT protein (cynomolgus monkey) (chain, as listed by the source): as the sequence (chain, as listed by the source) above
Chain of murine TIGIT (murine) (P86176 29-148 limits assumed): as the sequence (P86176 29-148 limits assumed) above

| Substance | IC50 [1] [nM] | IC50 [2] [nM] | IC50 (mouse TIGIT-His (mouse)) [nM] | Binding affinity drop vs. WT [3] [fold] | Kd [4] [nM] | Kd [5] [nM] | Kd (murine TIGIT (murine)) [nM] | Kd [6] [nM] | Kd [7] [nM] |
| --- | --- | --- | --- | --- | --- | --- | --- | --- | --- |
| 10A7 Fab | > 133 | 21.2 | 20.9 |  |  |  |  |  |  |
| 10A7 (antibody) | 55.7 | 12.9 | 12.6 | 1 | 0.54 | 8.22 | 0.24 | 24 | 44.7 |
| xCSF1 Fab control | > 133 | > 133 | > 133 |  |  |  |  |  |  |
